Assay results taken from PMC10869706, “Chp1 is a dedicated chaperone at the ribosome that safeguards eEF1A biogenesis” (Nature Communications, 2024).

B1: Chp1 (in yeast cells expressing V5-eEF1A) [yeast (S. cerevisiae)] / WT eEF1A (V5-TEF2) [yeast (S. cerevisiae)] (parent complex)
chain 1: MSTFNAETADNLEDIEKQFAVVAVEQAETYWKLLTSVPGSKLRLTKFDDEIYENFMERFPEYKDVERVKKFTEEELKTKEAKERWRKFFTIFEKKIEDYNFGTLLRTDASAEYGQFTTCFVVRLQFYAFEIARNKHGLNDWIVGQK
chain 2: MGKEKSHINVVVIGHVDSGKSTTTGHLIYKCGGIDKRTIEKFEKEAAELGKGSFKYAWVLDKLKAERERGITIDIALWKFETPKYQVTVIDAPGHRDFIKNMITGTSQADCAILIIAGGVGEFEAGISKDGQTREHALLAFTLGVRQLIVAVNKMDSVKWDESRFQEIVKETSNFIKKVGYNPKTVPFVPISGWNGDNMIEATTNAPWYKGWEKETKAGVVKGKTLLEAIDAIEQPSRPTDKPLRLPLQDVYKIGGIGTVPVGRVETGVIKPGMVVTFAPAGVTTEVKSVEMHHEQLEQGVPGDNVGFNVKNVSVKEIRRGNVCGDAKNDPPKGCASFNATVIVLNHPGQISAGYSPVLDCHTAHIACRFDELLEKNDRRSGKKLEDHPKFLKSGDAALVKFVPSKPMCVEAFSEYPPLGRFAVRDMRQTVAVGVIKSVDKTEKAAKVTKAAQKAAKK

Variants of: B1
Assay: co-IP (IP α-V5, blot α-Chp1), quantified; parent: 1; read off a plot

Point of comparison: chain 2 R264W, ratio to parent ~0.3. Against it:
- chain 2 G382R — higher, ~0.5
- chain 2 A125E — higher, ~0.5
- chain 2 R421C — higher, ~1.2
- chain 2 P331L — higher, ~2.4
- chain 2 G70S — lower, ~0.25
- chain 2 D91N — higher, ~0.45
